Literature values in US20100215737A1, “COMBINATION PHARMACEUTICAL COMPOSITIONS” (priority 2007, published 2010).

Tested on: MCO
Settings: 1 mg/kg iv alone, 1, 2 or 3 h after occlusion

B1: rt-PA: tissue plasminogen activator, thrombolytic (protein, UniProt P00750 36-562, looked up)
Tissue-type plasminogen …: SYQVICRDEKTQMIYQQHQSWLRPVLRSNRVEYCWCNSGRAQCHSVPVKSCSEPRCFNGGTCQQALYFSDFVCQCPEGFAGKCCEIDTRATCYEDQGISYRGTWSTAESGAECTNWNSSALAQKPYSGRRPDAIRLGLGNHNYCRNPDRDSKPWCYVFKAGKYSSEFCSTPACSEGNSDCYFGNGSAYRGTHSLTESGASCLPWNSMILIGKVYTAQNPSAQALGLGKHNYCRNPDGDAKPWCHVLKNRRLTWEYCDVPSCSTCGLRQYSQPQFRIKGGLFADIASHPWQAAIFAKHRRSPGERFLCGGILISSCWILSAAHCFQERFPPHHLTVILGRTYRVVPGEEEQKFEVEKYIVHKEFDDDTYDNDIALLQLKSDSSRCAQESSVVRTVCLPPADLQLPDWTECELSGYGKHEALSPFYSERLKEAHVRLYPSSRCTSQHLLNRTVTDNMLCAGDTRSGGPQANLHDACQGDSGGPLVCLNDGRMTLVGIISWGLGCGQKDVPGVYTKVTNYLDWIRDNMRP
neuroprotective effect, drug alone: neuroprotective effects when administered alone up to 1 h following occlusion
